Data set [1] concerns the molecule itself. In words: ITC.
Data set [2] deals with the molecule itself. In words: SEC-MALS.

B1: PV 2C NΔ39 (poliovirus 2C protein lacking the amino-terminal 39 residues) (domain or fragment)
chain: ARDKLEFVTKLRQLEMLENQISTIHQSCPSQEHQEILFNNVRWLSIQSKRFAPLYAVEAKRIQKLEHTINNYIQFKSKHRIEPVCLLVHGSPGTGKSVATNLIARAIAERENTSTYSLPPDPSHFDGYKQQGVVIMDDLNQNPDGADMKLFCQMVSTVEFIPPMASLEEKGILFTSNYVLASTNSSRISPPTVAHSDALARRFAFDMDIQVMNEYSRDGKLNMAMATEMCKNCHQPANFKRCCPLVCGKAIQLMDKSSRVRYSIDQITTMIINERNRRSNIGNCMEALFQ
In data set [1], B1 yielded an equilibrium dissociation constant (Kd) of approximately 400 nM. Also, in data set [2], the “stoichiometry N” value was determined as 2.
